Data published in paper doi:10.1101/711796.

These substances were tested against taxol-stabilized microtubules (UniProt Q6B856) (assay: co-sedimentation).
UniProt Q6B856, sequence (Q6B856 whole entry, looked up): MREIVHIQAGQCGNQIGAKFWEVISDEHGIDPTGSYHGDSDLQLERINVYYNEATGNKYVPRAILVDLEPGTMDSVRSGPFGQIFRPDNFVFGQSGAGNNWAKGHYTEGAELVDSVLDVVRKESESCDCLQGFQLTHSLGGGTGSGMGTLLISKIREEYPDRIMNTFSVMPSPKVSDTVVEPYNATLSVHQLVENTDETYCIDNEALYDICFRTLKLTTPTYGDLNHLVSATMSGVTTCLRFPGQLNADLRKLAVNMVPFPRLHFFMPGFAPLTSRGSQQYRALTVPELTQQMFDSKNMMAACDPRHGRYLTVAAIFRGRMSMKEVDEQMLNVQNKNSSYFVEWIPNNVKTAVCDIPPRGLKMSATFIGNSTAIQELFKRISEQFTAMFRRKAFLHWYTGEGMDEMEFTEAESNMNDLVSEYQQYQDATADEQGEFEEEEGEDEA
Substance HIS-TAN1-GFP (natural protein) has a Kd of 590 nM.
Substance “6xHIS-tagged ZmTAN1 (TANGLED1, maize) (natural protein)” has a Kd of 1270 nM.
Work on HIS-TAN1-GFP-Atto488 (natural protein) yielded a Kd of 60 nM.
